# From the nanobody polyreactivity screen of Harvey et al. (2022)
# Assay: yeast display, Sf9 membrane polyspecificity reagent, FACS + sequencing; frameworks hold sequencing errors
# Method in brief: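 A synthetic nanobody library was expressed on Saccharomyces cerevisiae BJ5465 by galactose induction for 36–48 hours. The library was stained for 1 hour at 4 °C with 10% biotinylated, detergent-solubilized Sf9 membrane reagent and enriched with streptavidin microbeads before FACS. Low and high (top ~1%) gates were set on anti-HA fluorescence for expression and streptavidin fluorescence for reagent binding, and each polyreactivity label reflects the gate of origin.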
row,Sequence,polyreactivity (PSR sort gate)
1,QVQLVESGGGLVQAGGSLRLSCAASGRTFSVNAMGWYRQAPGKEREFVAAISKSGGSTYYADSVKGRFTISRDNAKNTVYLQMNSLKPEDTAVYYCAADSNSVYPFDYWGQGTQVTVSS,high polyreactivity
2,QVQLVESGGGLVQAGGSLRLSCAASGRTFSVNAMGWYRQAPGKERELVATISYRGGSTYYADSVKGRFTISRDNAKNTVYLQMNSLKPEDTAVYYCAAGWRYWGRIYRDYDSWGQGTQVTVSS,high polyreactivity
3,QVQLVESGGGLVQAGGSLRLSCAASGRTFSWYAMGWYRQAPGKERELVAAITSDGSPYYADSVKGRFTISRDNAKNTVYLQMNSLKPEDTAVYYCAADTVYRSYYWGQGTQVTVSS,low polyreactivity
4,QVQLVESGGGLVQAGGSLRLSCAASGRTFSWYAMGWYRQAPGKERELVAAITSVGSTNYADSVKGRFTISRDNAKNTVYLQMNSLKPEDTAVYYCAATIFVYSYRYYYWGQGTQVTVSS,low polyreactivity
5,QVQLVESGGGLVQAGGSLRLSCAASGRTFSYNAMGWYRQAPGKERELVAAISYDGGRTYYADSVKGRFTISRDNAKNTVYLQMNSLKPEDTAVYYCAAYPYRGPHPWTIGDYWGQGTQVTVSS,low polyreactivity
6,QVQLVESGGGLVQAGGSLRLSCAASGRTFSYYAMGWYRQAPAKERELVAAIRSTGSTNYADSVKGRFTISRDNAKNTVYLQMNSLKPEDTAVYYCAARKYYQRGYDYWGQGTQVTVSS,high polyreactivity
7,QVQLVESGGGLVQAGGSLRLSCAASGRTFSYYAMGWYRQAPGKEREFVAAISSTGTSTYYADSVKGRFTISRDNAKNTFSLQMNRLKPEDTAVYYCNARVATYRLHSKFYYWGQGTQVTVSS,high polyreactivity
8,QVQLVESGGGLVQAGGSLRLSCAASGRTFSYYAMGWYRQAPGKERELVAAISRSGVTTHYADSVKGRFTISRDNAKNTVYLQMNSLKTEDTAVYYCNKVYYYVGTLDYWGQGTQVTVSS,high polyreactivity
9,QVQLVESGGGLVQAGGSLRLSCAASGRTFSYYAMGWYRQAPGKERELVAAISSGGSTNYADSVKGRFTISRDNAKNTVYLQMNSLKPEDTAVYYCATSSICGSGRVRWVTYYYWGQGTQVTVSS,low polyreactivity
10,QVQLVESGGGLVQAGGSLRLSCAASGRTFSYYAMGWYRQAPGKERELVAAITSGGGRTYYADSVKGRFTISRDNAKNTVYLQMNSLKPEDTAVYYCNKAYVSRYDYWGQGTQVTVSS,high polyreactivity
11,QVQLVESGGGLVQAGGSLRLSCAASGRTFSYYAMGWYRQAPGKERELVAAITSSGGRTTYADSVKGRFTISRDNAKNTVYLQMNSLKPEDTAVYYCAARHTYQGPGTYPMYYWGQGTQVTVSS,high polyreactivity
12,QVQLVESGGGLVQAGGSLRLSCAASGRTFSYYAMGWYRQAPGKERELVASINWSGGSTYYADSVKGRFTISRDNAKNTVYLQMNSLKPEDTAVYYCAADSWPFGYYYWGQGTQVTVSS,high polyreactivity
13,QVQLVESGGGLVQAGGSLRLSCAASGRTFSYYSMGWYRQAPGKERELVAAITSGGGRTYYADSVKGRFTISRDNAKNTVYLQMNRLKPEDTAVYYCNALYTLYNGYDYWGQGTQVTVSS,high polyreactivity
14,QVQLVESGGGLVQAGGSLRLSCAASGRTFSYYTMGWYRQAPGKERELVAAITSSGGSTYYADSVKGRFTISRDNAKNTVYLQMNSLKPEDTAVYYCAVLNYWAMDYWGQGTQVTVSS,high polyreactivity
15,QVQLVESGGGLVQAGGSLRLSCAASGRTFTAYTMGWYRQAPGKERELVASISSGVTYADSVKGRFTISRDNAKNTVYVQMNSLKPEDTAVYYCAARLWYVQGYVPYVHHRFDYWGQGTQVTVSS,low polyreactivity
16,QVQLVESGGGLVQAGGSLRLSCAASGRTFTAYTMGWYRQAPGKERELVDSISSGVTYADSVKGRFTISRDNAKNTVYLQMNSLKPEDTAVYYCAARLWYVQGYVPYVHHRFDYWGQGTQVTVSS,low polyreactivity
17,QVQLVESGGGLVQAGGSLRLSCAASGRTFTDYTMGWSRQAPGKERELVASISSGVTYADSVKGRFTISRDNAKYTVYLQMNSLKPEDTEVYYCAARLWYVQGYVPYVHHRFDYWGQGTQVTVSS,low polyreactivity
18,QVQLVESGGGLVQAGGSLRLSCAASGRTFTFNAMGWYRQAPGKERELVARIDWRGITYADSVKGRFTISRDNAKNTVYLQMNSLKPEDTAVYYCAAVWLHIRGFFFQYDYWGQGTQVTVSS,low polyreactivity
19,QVQLVESGGGLVQAGGSLRLSCAASGRTFTGSVMGWYRKAPGKERELVAAISWNGGRTYYADSVKGRFTLSRDNAKNTVYLQMYSLKPEDTGVYLCGTYGYNSYDYWGHGTQVTVSS,high polyreactivity
20,QVQLVESGGGLVQAGGSLRLSCAASGRTFTGYAMGWYRQAPGKEREFVAAITQRGGSTYYADSVKGRFTISRDNEKNTVYLQMNSLKAEDTAVYYCAARRRYKMDYWGQGTQVTVSS,high polyreactivity
21,QVQLVESGGGLVQAGGSLRLSCAASGRTFTINAMGWYRQAPGKERELVAAITSGGSTNYADSVKGRFTISRDNAKNTVYLQMNSLKPEDTAVYYCNAGYYSRRYYFSGRLDYWGQGTQVTVSS,low polyreactivity
22,QVQLVESGGGLVQAGGSLRLSCAASGRTFTIYAMGWYRQAPGKEREFVASITGSDGSTYYADSVKGRFTISRDNAKNTVYLQMNSLKPEDTAVYYCAAATSSAYDYWGQGTQVTVSS,low polyreactivity

row,Sequence,polyreactivity (PSR sort gate)
1,QVQLVESGGGLVQAGGSLRLSCAASGRTFTIYAMGWYRQAPGKERELVAAISWSDGSTYYADSVKGRFTISRDNAKNTVYLQMNSLKPEDTAVYSCAREVYGDASAPDMDYWGQGTQVTVSS,low polyreactivity
2,QVQLVESGGGLVQAGGSLRLSCAASGRTFTKYAMGWDRQAPGKERELVAVISVIGGTNYADSVKWRFTISRDNAKNTVYLQMNSLKPEDTAVYYCAAVSREHDYWGQGTQVTVSS,high polyreactivity
3,QVQLVESGGGLVQAGGSLRLSCAASGRTFTLYAMGWSRPAPGKERELVAAIRWSGSSTYYADSVKGRFTISRDNSKNTVYLQMNSLKPEDTAVYYCAARAGRYDRYGYWGQGTQVTVSS,high polyreactivity
4,QVQLVESGGGLVQAGGSLRLSCAASGRTFTNNAMGWYRQAPGKERELVARITKTSGSTHYADSVKGRFTNSRDNAKNTVYLQMNSMKPEDTAVYYCATRGHYHGFYYTYPRYDSWGQGTQVTVSS,low polyreactivity
5,QVQLVESGGGLVQAGGSLRLSCAASGRTFTPNVMGWYRQAPGKERELVAAITQSGGRTYYADSVKGRFTISRDNAKNTVYLQMNSLKPEDTAVYYCNAERAGTYRYDYWGQGTQVTVSS,high polyreactivity
6,QVQLVESGGGLVQAGGSLRLSCAASGRTFTPYAMGWYRPAPGKERELVATISSGTSTNYADSVKGRVTISRDNAKNTVYLQMNSLKPEDTAVYYCSPSRDTVGRGPIQRDYWGQGTQVTVSS,low polyreactivity
7,QVQLVESGGGLVQAGGSLRLSCAASGRTFTPYAMGWYRQAPGKERELVAAITSNSGITSYADSVKGRFTISRDNAKNTVYLQMNSLKPEDTAVYYCNADYYRYFRYYYWGQGTQVTVSS,high polyreactivity
8,QVQLVESGGGLVQAGGSLRLSCAASGRTFTPYTMGWYRQAPGKEREFVAAITVRGGSTYYADSVKGRFTISRDNAKNTVYLQMNSLKPEDTAVYYCAASYVSYRKRDDYWGQGTQVTVSS,high polyreactivity
9,QVQLVESGGGLVQAGGSLRLSCAASGRTFTQYAMGWYRQAPGKDRELVAAIDYRGSRTYYADSVKGRFTLTRDKAKNTVYLQMNSLKPEDTAVYYCNTVHRFGTYDYWGEGTQVTVSS,high polyreactivity
10,QVQLVESGGGLVQAGGSLRLSCAASGRTFTRNAMGWYRQAPGKERELVAAITYRAGRTYYADSVKGRFTISRDNAKNTVYLQMNSLKPEDTAVYYCNVVPGASLKEDYWGQGTQVTVSS,low polyreactivity
11,QVQLVESGGGLVQAGGSLRLSCAASGRTFTRYAMGLYRPAPGKERELVAAISYIGGRTNYADSVKGRFTISRDNAKKTVYLQMHSLKPEDTAVYYCAASRPWVYYDGLVYWGQGTQVTVTS,high polyreactivity
12,QVQLVESGGGLVQAGGSLRLSCAASGRTFTRYAMGWYRQAPGKERELVAAISGGGGSTYYADSVKGRFTISRDNAKNTVYLQMNSLKPEDTAVYYCAADVTYGTKWAYDYWGQGTQVTVSS,high polyreactivity
13,QVQLVESGGGLVQAGGSLRLSCAASGRTFTRYAMGWYRQAPGKERELVAAISRSGGSTHYADSVKGRFTISRDKAKNTVYLQMNSLKPEDTAVYYCNAQQGRYWSAKGYDYWGQGTQVTVSS,high polyreactivity
14,QVQLVESGGGLVQAGGSLRLSCAASGRTFTRYTKGWYRQAPRKERDLVAASTRGGSTYADSVKGRFTNSRDNAKNTVYLEMNSLKPEDTAVYYCAAYWGFFPWRAYPYDYWGQGTQVTVSS,high polyreactivity
15,QVQLVESGGGLVQAGGSLRLSCAASGRTFTRYTMGWYRQAPRKERELVAAITRGGTTYYADSVKGRFTISRDNAKNTVYLQMNSLKPEDTAVYYCNKRKQQSSDGYGYWGQGTQVTVSS,high polyreactivity
16,QVQLVESGGGLVQAGGSLRLSCAASGRTFTSNGMGWYRQAPGKERELVAAITSGTSTYYADSVKGRFTISRDNAKNTVYLQMNSLKPEDTAVYYCNKLVPRGSSYSTVIRGGGYWGQGTQVTVSS,high polyreactivity
17,QVQLVESGGGLVQAGGSLRLSCAASGRTFTSYAMGWYRQAPGKERELVAGISSGGSTNYADSVKGRFTISRDNAKNTVYLQMNSLKPVDTAVYYCAAGFSPGTFYAPTLAFDYWGQGTQVTVSS,low polyreactivity
18,QVQLVESGGGLVQAGGSLRLSCAASGRTFTSYAMGWYRQAPGKERELVAGISSGGSTNYADSVKGRFTISRDNEKNTVYLQMNSLKPEDTEVYYCAAGFSPGTYDAPTLAFDYWGQGTQVTVSS,low polyreactivity
19,QVQLVESGGGLVQAGGSLRLSCAASGRTFTSYAMGWYRQAPGKERELVAVITRRGGSTSYADSVKGRFTISRDNAKNTVYLQMNSLKPEDTAVYYCAAKRTWPDVKYIRYGYWGQGTQVTVSS,high polyreactivity
20,QVQLVESGGGLVQAGGSLRLSCAASGRTFTSYPMGWYRQAPGKERELVAAISQGGGRTYYADSVKGRFTISRDNAKNTVYLQMNSLKPEDTAVYYCNTVSLSLRYDYWGQGTQVTVSS,high polyreactivity
21,QVQLVESGGGLVQAGGSLRLSCAASGRTFTTNAMGSYRQAPGKERELVAAITIGDDTYYADSVKGRFTISRDNAKNTVYLQMNSLKPEDTAVYYCAADYKRVPFVTQYVSKDGYWGQGTQVTVSS,low polyreactivity
